Test results: paper PMC9340540

Legend:
CHN-1 (C. elegans) [1] = test: SEC; S200 Superdex column; CHN-1 alone, UFD-2 alone and CHN-1 + UFD-2 mixed in equal molar ratios
CHN-1 (C. elegans) [2] = biological target: CHN-1 (C. elegans)
Target sequence in this assay (main, as listed by the source): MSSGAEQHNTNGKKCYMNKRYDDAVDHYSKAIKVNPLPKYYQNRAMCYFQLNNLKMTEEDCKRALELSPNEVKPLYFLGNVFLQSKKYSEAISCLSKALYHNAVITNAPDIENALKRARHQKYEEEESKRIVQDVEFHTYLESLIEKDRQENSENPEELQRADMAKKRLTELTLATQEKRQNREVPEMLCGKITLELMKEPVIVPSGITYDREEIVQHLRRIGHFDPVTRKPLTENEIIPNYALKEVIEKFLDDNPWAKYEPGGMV

Chain of UFD-2 (Q09349 whole entry): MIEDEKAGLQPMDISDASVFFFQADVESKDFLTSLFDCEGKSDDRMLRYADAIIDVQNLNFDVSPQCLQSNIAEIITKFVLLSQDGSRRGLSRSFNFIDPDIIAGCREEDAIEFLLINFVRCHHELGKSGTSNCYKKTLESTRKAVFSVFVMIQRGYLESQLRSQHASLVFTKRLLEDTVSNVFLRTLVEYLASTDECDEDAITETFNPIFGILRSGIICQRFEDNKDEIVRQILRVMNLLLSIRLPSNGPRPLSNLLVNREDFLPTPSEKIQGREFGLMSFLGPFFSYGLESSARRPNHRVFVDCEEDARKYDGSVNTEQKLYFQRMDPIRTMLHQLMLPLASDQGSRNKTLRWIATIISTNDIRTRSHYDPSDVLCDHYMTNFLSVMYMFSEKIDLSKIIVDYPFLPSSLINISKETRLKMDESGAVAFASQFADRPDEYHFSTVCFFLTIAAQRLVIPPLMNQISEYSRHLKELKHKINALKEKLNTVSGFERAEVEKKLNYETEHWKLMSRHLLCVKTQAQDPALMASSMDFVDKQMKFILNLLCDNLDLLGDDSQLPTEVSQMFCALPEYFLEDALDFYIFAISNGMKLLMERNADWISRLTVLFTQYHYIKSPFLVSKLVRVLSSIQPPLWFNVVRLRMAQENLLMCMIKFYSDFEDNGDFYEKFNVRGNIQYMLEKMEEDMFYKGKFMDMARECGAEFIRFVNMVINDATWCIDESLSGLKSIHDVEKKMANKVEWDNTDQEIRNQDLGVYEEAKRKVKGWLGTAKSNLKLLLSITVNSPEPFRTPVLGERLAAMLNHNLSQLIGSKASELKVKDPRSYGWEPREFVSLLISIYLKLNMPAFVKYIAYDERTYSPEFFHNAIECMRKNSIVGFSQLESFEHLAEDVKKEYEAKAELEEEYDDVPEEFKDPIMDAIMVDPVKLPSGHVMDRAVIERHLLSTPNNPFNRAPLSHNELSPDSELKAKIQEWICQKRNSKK

stoichiometry N (CHN-1 (C. elegans) [1]) | CHN-1 auto-ubiquitylation (UBE2D1); UFD-2 titrated at 0.3, 0.65 and 1.3 μM against 1.3 μM CHN-1 (CHN-1 (C. elegans) [2]) | Substance
2 |  | CHN-1 (enzyme)
 | 2 fold | UFD-2 (from UniProt Q09349 1-984) (enzyme)
